The record followed here is patent US8349801B2, “Peptide ligands for G-protein coupled receptors” (priority 2006, dated 2013).

Where two headings read alike, the source gives them in different places. No end group written: not given here.

One experiment addresses T1, MrgX2 (Homo sapiens, UniProt Q96LB1).
T1 construct: expressed in transfected cells; host or cells: CHO-K1 (ATCC-CCL-61), transient co-transfection
T1 sequence (Q96LB1 1-330): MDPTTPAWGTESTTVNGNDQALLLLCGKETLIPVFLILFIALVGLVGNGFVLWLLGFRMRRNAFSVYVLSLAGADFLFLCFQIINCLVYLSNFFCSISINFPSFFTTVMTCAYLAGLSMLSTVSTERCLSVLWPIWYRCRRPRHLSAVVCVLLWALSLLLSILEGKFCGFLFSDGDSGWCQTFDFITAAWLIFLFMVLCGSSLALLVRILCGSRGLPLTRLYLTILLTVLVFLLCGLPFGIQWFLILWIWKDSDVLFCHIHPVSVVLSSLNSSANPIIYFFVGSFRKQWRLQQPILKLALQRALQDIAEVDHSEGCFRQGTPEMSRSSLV
As to the kind of experiment: Calcium flux in CHO-K1 cells co-transfected with MrgX2 and Gα16. The experiment is classed as cell-based. Conditions: for calcium flux relative to the negative control: 1 μM, about 20 to 90 seconds; for eliciting calcium flux compared to cortistatin-14: MrgX2-expressing cells, summary statement. Here is the method: (§1) The assay was carried out in CHO cells were transiently transfected with the GPCR of choice, by utilizing the promiscuous Gα16 to divert signaling to the Gq pathway, thus enabling readout of GPCR activation by testing for Calcium flux as described by Liu et al 2003 (Biomol Screen 8, 39-49).
(§2) All the peptides thus obtained were tested for their ability to change calcium flux in CHO—K1 cells (ATCC-CCL-61) transiently co-transfected with an expression vector containing the GPCR of choice and expression vector containing the Gα16 encoding cDNA. Expression constructs containing cDNA clones for MrgX1, MrgX2, Mas or FPRL1 were commercially obtained in one of the following expression vectors: pcDNA3.1, pCMV6, or MO2.
(§3) Transient transfections were performed using CHO—K1 cells as host cells. Cells (12 million) were plated into T75 flasks on the day preceding transfection. Cells were transfected with the appropriate GPCR expression vector and with a vector expressing Gα16 using a lipid-based reagent, MTI, according to the manufacturer's recommendation. Cells were transfected for 5 hours, then re-plated into 96-well dishes (60,000 cells per well) and grown overnight.
(§4) On the day of the experiment, cells were loaded with Fluo4-NW (Invitrogen) according to the manufacturer's recommendation. Plates were loaded into a FlexStation™ (Molecular Devices) plate reader and fluorescence was monitored. Seventeen seconds following initiation of reading, cells were stimulated with the indicated agonist/compound at final concentration of 1 μM. Each 96 well plate contained cells transfected with one GPCR expression vector and each of the examined peptides was tested in triplicate.
(§5) We defined a hit as a peptide which elicited a clear and distinct increase in intracellular calcium that is clearly visible and statistically significant upon examination of the calcium trace for at least two repeats. The criterion for statistical significance was a p-value lower than 0.001 in a t-test comparing the levels of calcium before and after peptide addition.
(§6) Based on dose response experiments, EC50 best fit values were calculated by non-linear regression of sigmoidal dose-response curves, using Prism version 4 (GraphPad Software Inc., San Diego, Calif.). The formulae for the sigmoidal dose-response curves was defined as Y=Bottom+(Top−Bottom)/(1+10^ (LogEC50−X)*HillSlope))
The ability of Peptides to change calcium flux was examined in CHO—K1 cells co-transfected with MrgX2 and Gal 6.
A general note: A change in cytosolic calcium serves as a functional read-out for many receptors and channels.

The next experiment deals with T2, FPRL1 (Homo sapiens, UniProt P25090).
T2 sequence (P25090 1-351): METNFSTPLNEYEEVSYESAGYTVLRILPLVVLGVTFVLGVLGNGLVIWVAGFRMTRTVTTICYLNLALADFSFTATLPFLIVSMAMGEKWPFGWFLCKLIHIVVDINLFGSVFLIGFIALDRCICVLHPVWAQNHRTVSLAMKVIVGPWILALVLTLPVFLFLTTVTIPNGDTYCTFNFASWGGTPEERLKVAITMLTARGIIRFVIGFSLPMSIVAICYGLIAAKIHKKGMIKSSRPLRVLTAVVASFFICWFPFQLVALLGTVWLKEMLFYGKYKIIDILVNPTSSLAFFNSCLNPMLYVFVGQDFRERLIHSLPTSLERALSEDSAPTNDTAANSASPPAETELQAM
Nature of the experiment: Calcium flux in CHO-K1 cells co-transfected with FPRL1 and Gα16. The format is cell-based. The arrangement: expressed in transfected cells; host or cells: CHO-K1 (ATCC-CCL-61), transient co-transfection. Conditions: for calcium flux, P58 and derivatives: dose response. The procedure: as §1, §2, §3, §4, §5, §6
The ability of Peptides to change calcium flux was examined in CHO—K1 cells co-transfected with FPRL1 and Gal 6.

Experiment [1] relates to Zymosan-induced murine dorsal air pouch model. The experiment is classed as in vivo, mice. Conditions: 4 h; for inhibition of zymosan-induced neutrophil (GR-1+) accumulation: FACS. Here is the method: The anti-inflammatory activity of P58 shorter derivatives was tested in the same model of acute inflammation used in Example 6, the Zymosan-induced murine dorsal air pouch model.
Male out-bred Swiss albino mice were purchased from Harlan, UK (T.O. strain) and maintained on a standard chow pellet diet with tap water ad libitum and a 12:00 h light/dark cycle. All animals were housed for 7 days prior to experimentation to allow body weight to reach ˜25 g on the day of the experiment.
Drugs were stored at −20° C. and defrosted on the day of the experiment. Peptide P58 (SEQ ID NO:1) was provided lyophilized; it was taken back to room temperature and dissolved with sterile PBS before use to make an initial 1 mg/ml solution. Peptide P58-4 (SEQ ID NO:2) was provided lyophilized; it was taken back to room temperature and dissolved with sterile PBS before use to make an initial 327 μg/ml solution. Peptide P58-5 (SEQ ID NO:3) was provided lyophilized; it was taken back to room temperature and dissolved with sterile PBS before use to make an initial 476 μg/ml solution. Vehicle consisted of sterile pyrogen free PBS (Gibco, cat no. 14190-094). Once dissolved, peptides P58 (SEQ ID NO:1), P58-4 (SEQ ID NO:2) and P58-5 (SEQ ID NO:3) gave a clear solution. Drugs or vehicle were administered i.v. at a final volume of 200 μl in the doses described below.
Lavage fluids were kept all the time on ice, then used to determine the number of migrated leukocytes, by taking an aliquot (100 μl) and diluting it 1:10 in Turk's solution (0.01% crystal violet in 3% acetic acid). The samples were then vortexed and 10 μl of the stained cell solution were placed in a Neubauer haematocymometer. Differential cell count was done using a light microscope (Olympus B061). In view of their chromatic characteristics and their nucleus and cytoplasm appearance, polymorphonuclear leukocytes (PMN; >95% neutrophils) could be easily identified.
For FACS analyses, an aliquot of lavage fluid was stained with the PE-conjugated anti-GR-1 monoclonal antibody (1:100 dilution, eBiosciences; Cat 11-5931) to mark polymorphonuclear leukocytes. Staining was performed at 4° C. Flow cytometry was performed using FACScan analyser (Becton Dickinson, Cowley, UK) with air-cooled 100 mW argon laser tuned to 488 nm connected to an Apple Macintosh G3 computer running Cell Quest II software. Forward and sidescatter characteristics were initially used to distinguish between the three distinct cell populations (lymphocytes, monocytes and granulocytes). Cells positive for GR-1 were detected in the FL2 channel (wavelength of 548 nm). Data are expressed as percentage of positive cells (in relation to the specific mAb). Determination of positive and negative populations was performed based on the control staining with irrelevant IgG isotype (rat IgG2b) labelled with PE. Once determined, quadrants were rigorously maintained for all analyses.
Data are shown for single mice, and also shown as mean±S.E. of (n) mice per group. Statistical differences were determined by ANOVA, plus Student Newman Keuls test. A P value<0.05 was taken as significant.

Experiment [2] relates to Isoproterenol induced rats. As to the kind of experiment: Cardiac remodeling induced by Isoproterenol. The format is in vivo, Wistar rats. Conditions: isoproterenol 2 mg/kg/day s.c. 7 days; peptides 1 ug/hour/Kg osmotic minipump; Losartan 1 mg/kg once a day by gavage. Here is the method:
The effect of the peptides […] (SEQ ID NO:10), […]-dimer ([…]) (SEQ ID […]), P33_V (SEQ ID NO:7), P33-dimer (P33_D) (SEQ ID NO:6) on cardiac remodeling, was tested by determining their effect on heart hypertrophy and fibrosis (deposition of collagen I, III, and fibronectin) induced by Isoproterenol. Losartan (an antagonist of the known angiotensin II receptor, AT1, Kucharewicz et al., 2002; Hypertension, (40): 774-779) was used as positive control. The negative control group was treated with vehicle only. Additional control groups included rats not-treated with isoproterenol which were treated with the peptides, with Losartan or with the vehicle. The analysis included determination of the left ventricle mass and morphometry. In addition, immunofuorescence analysis of fibronectin and collagens I and III deposition was performed by confocal microscopy. Animals Acclimatization: Male Wistar rats Age: 13-14 weeks (250 to 300 g) were maintained in the animal facilities for 7 days before the beginning of the experiment. The animals were exposed to a brightness circle of light-dark cycle of 12 hs (day-06:00 to 18:00; night-18:00 to 06:00), and the room temperature was kept at 23±2° C. Heart failure was induced by daily injections of isoproterenol (2 mg/kg/day, subcutaneously) during 7 days. […] Immunofluorescence-labeling and quantitative confocal microscopy was used to investigate the distribution and quantity of collagen types I, III and fibronectin present in the left ventricles. […] Optimal confocal settings (aperture, gain and laser power) were determined at the beginning of each imaging session and then held constant during the analysis of all the samples. […] For quantitative analysis of collagens I, III, and fibronectin, the ImageTool 2.0 image analysis program was used ([…].edu/[…]) to measure the fluorescence intensity in images randomly selected. […]

Regarding “AHAQHFHKHQLWPSPFRALKPRP (listed as Homo sapiens) [Peptide 63]”, in the experiment with MrgX2, the “calcium flux relative to the negative control” value was “increased calcium flux” and the “eliciting calcium flux compared to cortistatin-14” value is reported as “superior to cortistatin-14”.
Turning to “LQKFTSWFM-amide (LQKFTSWFM-NH2; listed as Homo sapiens) [P58—5]”, the “calcium flux, P58 and derivatives” value with FPRL1 was “elicited calcium flux”. The “inhibition of leukocyte accumulation triggered by zymosan A” value (shortened to “inhibition … by zymosan A”) in experiment [1] (20 nmole/mouse i.v.) was “did not inhibit leukocyte migration”; in experiment [1] (80 nmole/mouse i.v.), 29%. Moreover, the “inhibition of zymosan-induced neutrophil (GR-1+) accumulation” value in experiment [1] (20 nmole/mouse i.v.) is recorded as “weak effect”.
On to “AAQATGPLQDNELPGLDERPPRAHAQHFHKHQLWPSPFRALKPRP (listed as Homo sapiens) [Peptide P94]”, for which the “calcium flux relative to the negative control” value with FPRL1 (1 μM, three wells, about 20 to 90 seconds) was “increased calcium flux”; with MrgX2 it was “increased calcium flux”. Besides, in the experiment with MrgX2, the “eliciting calcium flux compared to cortistatin-14” value was “superior to cortistatin-14”.
Turning to “FTSWFM-amide (FTSWFM-NH2; listed as Homo sapiens) [P58—4]”, the “calcium flux, P58 and derivatives” value in the experiment with FPRL1 is recorded as “elicited calcium flux”. Also, in experiment [1] (20 nmole/mouse i.v.), the “inhibition … by zymosan A” value is 35%. Also, in experiment [1] (80 nmole/mouse i.v.), the “inhibition … by zymosan A” value was found to be 47% and the “inhibition of zymosan-induced neutrophil (GR-1+) accumulation” value was determined as 49%.
As for `CCCCc1nc(Cl)c(CO)n1Cc1ccc(-c2ccccc2-c2nn[nH]n2)cc1` [Losartan, reference compound], the “effect on Isoproterenol induced raise in the left ventricle to body mass ratio (LV/BW)” value in experiment [2] is reported as “did not have an effect”.
